B1: Y0313-2 (antibody, V domains shown)
VH: EVQLVESGGGLVQPGGSLRLSCAASGYDFTHYGMNWVRQAPGKGLEWVGWINTYTGEPTYAADFKRRFTFSLDTSKSTAYLQMNSLRAEDTAVYYCAKYPHYYVNERKSHWYFDVWGQGTL
VL: DIQLTQSPSSLSASVGDRVTITCRANEQLSNYLNWYQQKPGKAPKVLIYFTSSLHSGVPSRFSGSGSGTDFTLTISSLQPEDFATYYCQQYSTVPWTFGQGTKVEIKR
B2: Y0240-1 (antibody, V domains shown)
VH: EVQLVESGGGLVQPGGSLRLSCAASGYTFTNYGMNWVRQAPGKGLEWVGWINTYTGEPTYAADFKRRFTFSLDTSKSTAYLQMNSLRAEDTAVYYCAKYPHYYLTDHKSHWYFDVWGQGTL
VL: DIQLTQSPSSLSASVGDRVTITCRANEQLSNYLNWYQQKPGKAPKVLIYFTSSLHSGVPSRFSGSGSGTDFTLTISSLQPEDFATYYCQQYSTVPWTFGQGTKVEIKR
B3: Y0239-12 (antibody, V domains shown)
VH: EVQLVESGGGLVQPGGSLRLSCAASGYTFTNYGMNWVRQAPGKGLEWVGWINTYTGEPTYAADFKRRFTFSLDTSKSTAYLQMNSLRAEDTAVYYCAKYPHYYAHEKKSHWYFDVWGQGTL
VL: DIQLTQSPSSLSASVGDRVTITCRANEQLSNYLNWYQQKPGKAPKVLIYFTSSLHSGVPSRFSGSGSGTDFTLTISSLQPEDFATYYCQQYSTVPWTFGQGTKVEIKR
B4: Y0239-19 (antibody, V domains shown)
VH: EVQLVESGGGLVQPGGSLRLSCAASGYTFTNYGMNWVRQAPGKGLEWVGWINTYTGEPTYAADFKRRFTFSLDTSKSTAYLQMNSLRAEDTAVYYCAKYPHYYVNERKSHWYFDVWGQGTL
VL: DIQLTQSPSSLSASVGDRVTITCRANEQLSNYLNWYQQKPGKAPKVLIYFTSSLHSGVPSRFSGSGSGTDFTLTISSLQPEDFATYYCQQYSTVPWTFGQGTKVEIKR
B5: Y0239-2 (antibody, V domains shown)
VH: EVQLVESGGGLVQPGGSLRLSCAASGYTFTNYGMNWVRQAPGKGLEWVGWINTYTGEPTYAADFKRRFTFSLDTSKSTAYLQMNSLRAEDTAVYYCAKYPHYYKNDKSSHWYFDVWGQGTL
VL: DIQLTQSPSSLSASVGDRVTITCRANEQLSNYLNWYQQKPGKAPKVLIYFTSSLHSGVPSRFSGSGSGTDFTLTISSLQPEDFATYYCQQYSTVPWTFGQGTKVEIKR
B6: Y0241-6 (antibody, V domains shown)
VH: EVQLVESGGGLVQPGGSLRLSCAASGYDYTNYGINWVRQAPGKGLEWVGWINTYTGEPTYAADFKRRFTFSLDTSKSTAYLQMNSLRAEDTAVYYCAKYPHYYGSSHWYFDVWGQGTL
VL: DIQLTQSPSSLSASVGDRVTITCRANEQLSNYLNWYQQKPGKAPKVLIYFTSSLHSGVPSRFSGSGSGTDFTLTISSLQPEDFATYYCQQYSTVPWTFGQGTKVEIKR
B7: Y0242-1 (antibody, V domains shown)
VH: EVQLVESGGGLVQPGGSLRLSCAASGYTFTNYGMNWVRQAPGKGLEWVGWINTWTGEPTYAADFKRRFTFSLDTSKSTAYLQMNSLRAEDTAVYYCAKYPHYYGSSHWYFDVWGQGTL
VL: DIQLTQSPSSLSASVGDRVTITCRANEQLSNYLNWYQQKPGKAPKVLIYFTSSLHSGVPSRFSGSGSGTDFTLTISSLQPEDFATYYCQQYSTVPWTFGQGTKVEIKR
B8: Y0261-6 (antibody, V domains shown)
VH: EVQLVESGGGLVQPGGSLRLSCAASGYTFTNYGMNWVRQAPGKGLEWVGWINTYTGEPTYAADFKRRFTFSLDTSKSTAYLQMNSLRAEDTAVYYCAKYPHYYLKDKKSHWYFDVWGQGTL
VL: DIQLTQSPSSLSASVGDRVTITCRANEQLSNYLNWYQQKPGKAPKVLIYFTSSLHSGVPSRFSGSGSGTDFTLTISSLQPEDFATYYCQQYSTVPWTFGQGTKVEIKR
B9: Y0241-7 (antibody, V domains shown)
VH: EVQLVESGGGLVQPGGSLRLSCAASGYDWTNYGINWVRQAPGKGLEWVGWINTYTGEPTYAADFKRRFTFSLDTSKSTAYLQMNSLRAEDTAVYYCAKYPHYYGSSHWYFDVWGQGTL
VL: DIQLTQSPSSLSASVGDRVTITCRANEQLSNYLNWYQQKPGKAPKVLIYFTSSLHSGVPSRFSGSGSGTDFTLTISSLQPEDFATYYCQQYSTVPWTFGQGTKVEIKR

Molecular target: T1, VEGF(8-109) (human, UniProt P15692)
T1 chain: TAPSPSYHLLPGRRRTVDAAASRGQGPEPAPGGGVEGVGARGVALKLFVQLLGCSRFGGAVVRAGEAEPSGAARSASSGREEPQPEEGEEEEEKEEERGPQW
Assay: SPR, 25C
With B1 the Kd was 0.36 nM. With B2 the Kd was 0.5 nM. B3 gave a Kd of 0.6 nM. B4 showed a Kd of 0.3 nM. Work on B5 yielded a Kd of 4.6 nM. Binder B6 has a Kd of 2.7 nM. B7 showed a Kd of 1.8 nM. Binder B8 has a Kd of 0.6 nM. In the case of B9, the Kd is reported as 3 nM.
